Test results as given in patent US20250084169A1 (published 2025).
Where two headings read alike, the source gives them in different places.

What was measured:
[1] = molecular target: T1, recombinant human Fc gamma RIIIa (CD16a) 158V (human, UniProt P08637 17-208)
[2] = molecular target: T2, recombinant human Fc gamma RIIIa (CD16a) 158F (human, UniProt P08637 17-208)
[3] = molecular target: T3, recombinant human Fc gamma RIIIb (CD16b) (human, UniProt O75015 17-200)
[4] = molecular target: T4, recombinant human Fc gamma RIIa (CD32a) 131R (human, UniProt P12318 36-218)
T4 sequence (looked up): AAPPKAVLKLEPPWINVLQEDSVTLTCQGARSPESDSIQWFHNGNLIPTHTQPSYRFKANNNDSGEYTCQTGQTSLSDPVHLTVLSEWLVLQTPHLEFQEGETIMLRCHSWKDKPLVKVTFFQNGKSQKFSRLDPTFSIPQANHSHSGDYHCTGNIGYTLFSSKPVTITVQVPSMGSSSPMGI

[5] = molecular target: T5, recombinant human Fc gamma RIIb/c (CD32b/c) (human, UniProt P31994 46-217)
T5 sequence (looked up): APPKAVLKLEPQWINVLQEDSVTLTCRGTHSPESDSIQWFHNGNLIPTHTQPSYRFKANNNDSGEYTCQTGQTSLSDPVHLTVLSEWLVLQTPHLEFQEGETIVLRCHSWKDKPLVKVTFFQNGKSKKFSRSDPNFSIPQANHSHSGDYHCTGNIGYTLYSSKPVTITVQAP

[6] = molecular target: T6, recombinant human Fc gamma RI (CD64) (human, UniProt P12314 16-288)
T6 sequence (P12314 16-288 limits assumed): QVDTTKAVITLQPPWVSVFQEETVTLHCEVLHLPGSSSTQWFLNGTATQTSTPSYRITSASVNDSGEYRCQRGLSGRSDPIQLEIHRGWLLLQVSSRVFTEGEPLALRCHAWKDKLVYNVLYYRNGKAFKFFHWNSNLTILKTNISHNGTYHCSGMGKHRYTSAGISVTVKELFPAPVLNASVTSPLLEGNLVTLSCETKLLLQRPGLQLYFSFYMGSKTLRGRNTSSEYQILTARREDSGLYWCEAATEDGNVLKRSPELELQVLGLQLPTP

[7] = molecular target: T4, recombinant human Fc gamma RIIa (CD32a) …; remark: listed apart in the source
[8] = molecular target: T5, recombinant human Fc gamma RIIb/c …; remark: listed apart in the source
[9] = molecular target: T1, recombinant human Fc gamma RIIIa …; remark: listed apart in the source
[10] = molecular target: T7, recombinant human Fc gamma RIIa (CD32a) 131H (human, UniProt P12318 36-218)
T7 sequence (looked up): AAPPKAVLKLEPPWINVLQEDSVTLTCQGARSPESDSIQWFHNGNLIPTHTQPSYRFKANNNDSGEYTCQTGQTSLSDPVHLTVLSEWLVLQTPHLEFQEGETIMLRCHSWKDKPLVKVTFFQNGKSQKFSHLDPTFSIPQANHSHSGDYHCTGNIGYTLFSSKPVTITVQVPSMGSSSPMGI

[11] = molecular target: T2, recombinant human Fc gamma RIIIa …; remark: listed apart in the source
[12] = molecular target: T3, recombinant human Fc gamma RIIIb (CD16b); remark: listed apart in the source
[13] = molecular target: T8, CD20 Lipoparticles (Homo sapiens (Human), UniProt P11836 1-297)
T8 sequence: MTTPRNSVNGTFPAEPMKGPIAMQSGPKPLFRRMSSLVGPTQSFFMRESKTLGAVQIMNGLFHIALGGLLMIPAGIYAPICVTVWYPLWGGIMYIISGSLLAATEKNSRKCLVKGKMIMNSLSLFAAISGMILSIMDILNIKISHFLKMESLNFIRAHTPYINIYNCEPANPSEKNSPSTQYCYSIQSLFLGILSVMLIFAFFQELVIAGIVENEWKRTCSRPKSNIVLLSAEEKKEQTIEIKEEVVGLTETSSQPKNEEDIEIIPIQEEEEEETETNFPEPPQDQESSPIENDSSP

[14] = molecular target: T6, recombinant human Fc gamma RI (CD64); remark: listed apart in the source

T2 sequence (P08637 17-208 limits assumed): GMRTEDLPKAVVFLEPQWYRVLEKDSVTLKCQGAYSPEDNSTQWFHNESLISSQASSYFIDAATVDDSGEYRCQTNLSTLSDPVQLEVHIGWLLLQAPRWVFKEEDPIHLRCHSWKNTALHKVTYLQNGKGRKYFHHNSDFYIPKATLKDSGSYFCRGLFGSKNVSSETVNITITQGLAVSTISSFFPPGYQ
T1 sequence (P08637 17-208 F176V limits assumed): as the sequence (P08637 17-208 limits assumed) above, with F160V counted along it
T3 sequence (O75015 17-200 limits assumed): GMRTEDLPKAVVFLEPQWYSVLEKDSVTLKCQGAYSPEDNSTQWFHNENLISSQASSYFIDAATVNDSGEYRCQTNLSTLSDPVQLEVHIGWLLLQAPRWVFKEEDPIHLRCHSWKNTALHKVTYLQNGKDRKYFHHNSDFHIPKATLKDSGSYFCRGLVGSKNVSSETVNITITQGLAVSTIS

B1: Rituximab-S239D/I332E (antibody, human IgG1, kappa)
heavy: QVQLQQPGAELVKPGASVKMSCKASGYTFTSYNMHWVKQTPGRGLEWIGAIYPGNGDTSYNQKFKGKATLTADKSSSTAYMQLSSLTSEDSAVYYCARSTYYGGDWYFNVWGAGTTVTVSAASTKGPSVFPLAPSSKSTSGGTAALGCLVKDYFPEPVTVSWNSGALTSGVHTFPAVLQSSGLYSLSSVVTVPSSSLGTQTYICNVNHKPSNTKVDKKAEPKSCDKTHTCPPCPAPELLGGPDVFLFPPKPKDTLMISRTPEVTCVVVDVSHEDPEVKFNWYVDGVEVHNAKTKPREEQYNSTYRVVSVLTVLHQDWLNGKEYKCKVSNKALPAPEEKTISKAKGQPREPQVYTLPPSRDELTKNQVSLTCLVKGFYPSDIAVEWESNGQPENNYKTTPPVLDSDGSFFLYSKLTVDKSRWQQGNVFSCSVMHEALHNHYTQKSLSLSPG
light: QIVLSQSPAILSASPGEKVTMTCRASSSVSYIHWFQQKPGSSPKPWIYATSNLASGVPVRFSGSGSGTSYSLTISRVEAEDAATYYCQQWTSNPPTFGGGTKLEIKRTVAAPSVFIFPPSDEQLKSGTASVVCLLNNFYPREAKVQWKVDNALQSGNSQESVTEQDSKDSTYSLSSTLTLSKADYEKHKVYACEVTHQGLSSPVTKSFNRGEC
Kd [1]: 4.33 nM
Kd [2]: 17.6 nM
Kd [3]: 0.0668 µM
Kd [4]: 76.8 nM
Kd [5]: 138 nM
Kd [6]: 0.0266 nM

B2: Rc66SIDE (antibody, human IgG1, kappa)
light: QIVLSQSPAILSASPGEKVTMTCRASSSVSYIHWFQQKPGSSPKPWIYATSNLASGVPVRFSGSGSGTSYSLTISRVEAEDAATYYCQQWTSNPPTFGGGTKLEIKRTVAAPSVFIFPPSDEQLKSGTASVVCLLNNFYPREAKVQWKVDNALQSGNSQESVTEQDSKDSTYSLSSTLTLSKADYEKHKVYACEVTHQGLSSPVTKSFNRGEC
heavy: QVQLQQPGAELVKPGASVKMSCKASGYTFTSYNMHWVKQTPGRGLEWIGAIYPGNGDTSYNQKFKGKATLTADKSSSTAYMQLSSLTSEDSAVYYCARSTYYGGDWYFNVWGAGTTVTVSAASTKGPSVFPLAPSSKSTSGGTAALGCLVKDYFPEPVTVSWNSGALTSGVHTFPAVLQSSGLYSLSSVVTVPSSSLGTQTYICNVNHKPSNTKVDKKAEPKSCDKTHTCPPCPAPELLGGPDVFLFPPKPKDTLMISRTPEVTCVVVDVSHEDPEVKFNWYVDGVEVHNAKTKPREEQYNSTYRVVSVLTVLHQDWLNGKEYKCKVSNKALPAPEEKTISKAKGQPREPQVYVLPPSRDELTKNQVSLLCLVKGFYPSDIAVEWESNGQPENNYLTWPPVLDSDGSFFLYSKLTVDKSRWQQGNVFSCSVMHEALHNHYTQKSLSLSPGK
chain: CPPCPAPELLGGPDVFLFPPKPKDTLMISRTPEVTCVVVDVSHEDPEVKFNWYVDGVEVHNAKTKPREEQYNSTYRVVSVLTVLHQDWLNGKEYKCKVSNKALPAPEEKTISKAKGQPREPQVYVYPPSRDELTKNQVSLTCLVKGFYPSDIAVEWESNGQPENNYKTTPPVLDSDGSFALVSKLTVDKSRWQQGNVFSCSVMHEALHNHYTQKSLSLSPGK
Kd [7]: 202 nM
Kd [8]: 253 nM
Kd [9]: 46.2 nM
Kd [10]: 255 nM
Kd [11]: 76.8 nM
Kd [12]: 163 nM
Kd [13]: 21.4 nM

B3: HB2174 (bispecific antibody, human IgG1, kappa)
heavy 1: QVQLVQSGGGVVQPGRSLRLSCAASGVSLPDYGVSWVRKAPGKGLEWVAVIWGSETTYYNSALKSRFTISRDNSKNTLYLQMSSLRAEDTAVYYCAKHYYYGGSFAMDYWGQGTLVTVSSASTKGPSVFPLAPSSKSTSGGTAALGCLVKDYFPEPVTVSWNSGALTSGVHTFPAVLQSSGLYSLESVVTVPSSSLGTQTYICNVNHKPSNTKVDKKVEPKSCTDWSPYADQSIKVRISLKSALGDKAYEWNDNEMYLFRSSVAYAMRQYFLKVKNQMILFGEEDVRVANLKPRISFNFFVTAPKNVSDIIPRTEVEKAIRMSRSRINDAFRLNDNSLEFLGIQPTLGPPNQPPVSTSTSPTRSMAPGAVHLPQPVSTRDKTHTCPPCPAPELLGGPSVFLFPPKPKDTLMISRTPEVTCVVVDVSHEDPEVKFNWYVDGVEVHNAKTKPREEQYNSTYRVVSVLTVLHQDWLNGKEYKCKVSNKALPAPIEKTISKAKGQPREPQVCTLPPSRDELTKNQVSLSCAVKGFYPSDIAVEWESNGQPENNYKTTPPVLDSDGSFFLVSKLTVDKSRWQQGNVFSCSVMHEALHNRFTQKSLSLSPG
heavy 2: not shown
light 1: DIQMTQSPSSLSASVGDRVTITCRASQDISKYLNWYQEKPGKAIKLLIYHTSRLHSGVPSRFSGSGSGTDFTLTISSLQPEDFATYYCQQGATLPYTFGPGTKLEIKRTVAAPSVFIFPPSDEQLKSGTASVKCLLNNFYPREAKVQWKVDNALQSGNSQESVTEQDSKDSTYSLSSTLTLSKADYEKHKVYACEVTHQGLSSPVTKSFNRGEC
light 2: QVQLQQPGAELVKPGASVKMSCKASGYTFTSYNMHWVKETPGRGLEWIGAIYPGNGDTSYNQKFKGKATLTADKSSSTAYMQLSSLTSEDSAVYYCARSTYYGGDWYFNVWGAGTLVTVSSASVAAPSVFIFPPSDEQLKSGTASVECLLNNFYPREAKVQWKVDNALQSGNSQESVTEQDSKDSTYSLSSTLTLSKADYEKHKVYACEVTHQGLSSPVTKSFNRGEC
Kd [1]: 497 nM
Kd [2]: 2310 nM
Kd [3]: 8.91 µM
Kd [4]: 901 nM
Kd [5]: 4480 nM
Kd [6]: 0.118 nM

B4: Rc66SIDE-P4-Rc66SIDE (antibody, human IgG1, kappa)
light: QIVLSQSPAILSASPGEKVTMTCRASSSVSYIHWFQQKPGSSPKPWIYATSNLASGVPVRFSGSGSGTSYSLTISRVEAEDAATYYCQQWTSNPPTFGGGTKLEIKRTVAAPSVFIFPPSDEQLKSGTASVVCLLNNFYPREAKVQWKVDNALQSGNSQESVTEQDSKDSTYSLSSTLTLSKADYEKHKVYACEVTHQGLSSPVTKSFNRGEC
heavy: QVQLQQPGAELVKPGASVKMSCKASGYTFTSYNMHWVKQTPGRGLEWIGAIYPGNGDTSYNQKFKGKATLTADKSSSTAYMQLSSLTSEDSAVYYCARSTYYGGDWYFNVWGAGTTVTVSAASTKGPSVFPLAPSSKSTSGGTAALGCLVKDYFPEPVTVSWNSGALTSGVHTFPAVLQSSGLYSLSSVVTVPSSSLGTQTYICNVNHKPSNTKVDKKAEPKSCDKTHTCPPCPAPELLGGPDVFLFPPKPKDTLMISRTPEVTCVVVDVSHEDPEVKFNWYVDGVEVHNAKTKPREEQYNSTYRVVSVLTVLHQDWLNGKEYKCKVSNKALPAPEEKTISKAKGQPREPQVYVLPPSRDELTKNQVSLLCLVKGFYPSDIAVEWESNGQPENNYLTWPPVLDSDGSFFLYSKLTVDKSRWQQGNVFSCSVMHEALHNHYTQKSLSLSPGK
chain: CPPCPAPELLGGPDVFLFPPKPKDTLMISRTPEVTCVVVDVSHEDPEVKFNWYVDGVEVHNAKTKPREEQYNSTYRVVSVLTVLHQDWLNGKEYKCKVSNKALPAPEEKTISKAKGQPREPQVYVYPPSRDELTKNQVSLTCLVKGFYPSDIAVEWESNGQPENNYKTTPPVLDSDGSFALVSKLTVDKSRWQQGNVFSCSVMHEALHNHYTQKSLSLSPGK
Kd [7]: 4.93 nM
Kd [8]: 3.17 nM
Kd [9]: 1.14 nM
Kd [10]: 2.54 nM
Kd [14]: < 1 pM
Kd [11]: 3.87 nM
Kd [12]: 1.05 nM
Kd [13]: < 0.001 nM

B5: Rc66SIDE-P16-Rc66SIDE (antibody, human IgG1, kappa)
light: QIVLSQSPAILSASPGEKVTMTCRASSSVSYIHWFQQKPGSSPKPWIYATSNLASGVPVRFSGSGSGTSYSLTISRVEAEDAATYYCQQWTSNPPTFGGGTKLEIKRTVAAPSVFIFPPSDEQLKSGTASVVCLLNNFYPREAKVQWKVDNALQSGNSQESVTEQDSKDSTYSLSSTLTLSKADYEKHKVYACEVTHQGLSSPVTKSFNRGEC
heavy: QVQLQQPGAELVKPGASVKMSCKASGYTFTSYNMHWVKQTPGRGLEWIGAIYPGNGDTSYNQKFKGKATLTADKSSSTAYMQLSSLTSEDSAVYYCARSTYYGGDWYFNVWGAGTTVTVSAASTKGPSVFPLAPSSKSTSGGTAALGCLVKDYFPEPVTVSWNSGALTSGVHTFPAVLQSSGLYSLSSVVTVPSSSLGTQTYICNVNHKPSNTKVDKKAEPKSCDKTHTCPPCPAPELLGGPDVFLFPPKPKDTLMISRTPEVTCVVVDVSHEDPEVKFNWYVDGVEVHNAKTKPREEQYNSTYRVVSVLTVLHQDWLNGKEYKCKVSNKALPAPEEKTISKAKGQPREPQVYVLPPSRDELTKNQVSLLCLVKGFYPSDIAVEWESNGQPENNYLTWPPVLDSDGSFFLYSKLTVDKSRWQQGNVFSCSVMHEALHNHYTQKSLSLSPGK
chain: CPPCPAPELLGGPDVFLFPPKPKDTLMISRTPEVTCVVVDVSHEDPEVKFNWYVDGVEVHNAKTKPREEQYNSTYRVVSVLTVLHQDWLNGKEYKCKVSNKALPAPEEKTISKAKGQPREPQVYVYPPSRDELTKNQVSLTCLVKGFYPSDIAVEWESNGQPENNYKTTPPVLDSDGSFALVSKLTVDKSRWQQGNVFSCSVMHEALHNHYTQKSLSLSPGK
Kd [7]: 1.83 nM
Kd [8]: 0.556 nM
Kd [9]: 0.257 nM
Kd [10]: 0.808 nM
Kd [14]: < 1 pM
Kd [11]: 2.71 nM
Kd [12]: < 0.001 nM
Kd [13]: < 0.001 nM
